“And” between values parts separate entries of the source, which are not always exact repeats. Equal values may be shown once.
B1: IL-10: carrier free recombinant rat IL-10 (R&D systems), anti-inflammatory cytokine (protein, UniProt P29456 19-178, looked up)
Interleukin-10: SKGHSIRGDNNCTHFPVSQTHMLRELRAAFSQVKTFFQKKDQLDNILLTDSLLQDFKGYLGCQALSEMIKFYLVEVMPQAENHGPEIKEHLNSLGEKLKTLWIQLRRCHRFLPCENKSKAVEQVKNDFNKLQDKGVYKAMNEFDIFINCIEAYVTLKMKN
B2: NP3+IL-10: recombinant rat IL-10 conjugated to 200 nm plasma polymer nanoparticles (nanoP3) (conjugate, UniProt P29456 19-178, looked up)
Interleukin-10: B1 Interleukin-10
modifications: conjugated to 200 nm plasma polymer nanoparticles
B3: IL-4: carrier free recombinant rat IL-4 (R&D systems), anti-inflammatory cytokine (protein, UniProt P20096 25-147, looked up)
Interleukin-4: CNDSPLREIINTLNQVTEKGTPCTEMFVPDVLTATRNTTENELICRASRVLRKFYFPRDVPPCLKNKSGVLGELRKLCRGVSGLNSLRSCTVNESTLTTLKDFLESLKSILRGKYLQSCTSMS
B4: NP3+IL-4: recombinant rat IL-4 conjugated to plasma polymer nanoparticles (nanoP3, 200 nm) (conjugate, UniProt P20096 25-147, looked up)
Interleukin-4: B3 Interleukin-4
modifications: conjugated to 200 nm plasma polymer nanoparticles

Legend:
[1] = Interleukin surface binding to nanoP3 (fluorescence of Cy5 label in leftover washes); format: physicochemical; conditions: ultra-pure water pH 6.5, room temperature; for maximum binding efficiency of nanoP3 to interleukin in solution: Cy5-tagged interleukin; for loading capacity, further increased loading: at lower binding efficiency
Method: Carrier free recombinant rat IL-4 and IL-10 (R&D systems, USA) were dissolved in phosphate buffered saline (PBS) at a stock concentration of 100 ng/μl. To establish binding kinetics, each interleukin was tagged with a Lightning-link Cy5 antibody label (Novus Biologicals, USA). For every 1×10^9 nanoP3 (200 nm diameter) in ultrapure water (Thermofisher, USA), either 1.42 μg of IL-4 or 1.32 μg of IL-10 was added. Additional water was added to reach a total reaction volume of 1 ml and left to incubate for a 1 h at room temperature. Binding kinetics were performed on a Clariostar monochromator microplate reader (BMG Labtech, Germany) using the leftover washes following 1 h incubations.
The binding efficiency of nanoP3 to IL-4 in solution was maximum at 99%, corresponding to a loading capacity of 0.5±0.01 μg/10^9 particles. […] The maximum binding efficiency of nanoP3 to IL-10 was 99.9%, representing a total mass loading capacity of 0.5±0.02 μg/10^9 particles. Further loading of IL-10 onto nanoP3 was observed up to 0.80±0.02 μg/10^9 particles corresponding to a binding efficiency of 40%. All experiments were performed in ultra-pure water (pH=6.5) at room temperature. The incubation time was 30 minutes.

[2] = system: rat carotid model of vessel injury; experiment: Rat carotid injury and nanoP3 delivery model (neointima, endothelium, M2 macrophages); format: in vivo; conditions: for repair of the damaged endothelium (immunostaining, von Willebrand factor): 14 days after injury; for vessel re-endothelialisation / healing (von Willebrand factor staining): 200 nm NP3, FIG. 8; for vascular occlusion (neointima formation percentage of cross-sectional lumen area): denuded injury roughly 60%
Method: (§1) Study approval was obtained from the Sydney Local Health District Animal Welfare Committee (protocol number 2017/006). Experiments were conducted in accordance with the Australian Code of Practice for the Care and Use of Animals for Scientific Purpose. Rats (Sprague Dawley, male, 7 weeks) were purchased from Laboratory Animal Service (NSW, Australia). Rats were given a single intramuscular injection of ketamine (75 mg/kg) and medetomidine (0.5 mg/kg) to induce anaesthesia. The common carotid artery was isolated and double ligations were spaced roughly 1 cm apart. A small incision at the distal end was made, through which microintraocular forceps (World Precision Instruments, USA) were inserted, expanded to their full width and rotated 360 degrees to injured the entire luminal surface area of the vessel. This was repeated 5 times before withdrawing the forceps, and inserting a 22G catheter into the same incision. Through the catheter, IL-4 or IL-10 bound nanoP3 solutions were injected at a concentration of 2×10^8 nanoP3 in a total volume of roughly 80 μl of RPMI media. The nanoP3 solutions were allowed to incubate for 2 minutes and then withdrawn completely from the vessel. The incision was sutured closed using a 9-0 nylon suture, and both ligations were undone to re-establish blood flow. The isolated vessel segments were then explanted 14 days later for pathological evaluation.
After 14 days in vivo, vessel explants were fixed in 4% PFA overnight and subjected to ethanol dehydrations prior to paraffin embedding. Embedded vessel segments were then sectioned in 5 μm thick slices in the longitudinal direction. M2 macrophage and luminal endothelium staining was conducted using anti-CD206 (Abcam, USA) and anti-VonWillebrand Factor (Sigma, USA) antibodies. Fluorescent imaging was conducted by using Alexa-fluor 594 secondary antibodies. Staining of neointima formation was conducted using hematoxylin & eosin (H&E) staining. Normalised hyperplasia was calculated as the total area of hyperplasia divided the area of the original vessel lumen.
Using a rat carotid model of vessel injury, the efficacy of NP3+IL-10, NP3+Sirolimus or NP3+Sulindac to treat cardiovascular pathology was determined in vivo. Carrier -free recombinant rat IL-10 (1.34 μg/10^9 nanoP3; R&D systems, USA), Sirolimus (2.50 μg/10^9 nanoP3; rapamycin, Sigma-Merck, USA), Sulindac (3.05 μg/10^9nanoP3; Sigma-Merck, USA), or a Cy7 fluorescent tag (5.03 μg/10^9 nanoP3; CF750 Antibody Label, Sigma-Merck, USA) were diluted in sterile water and conjugated to 2×10^9 nanoP3.
The rats were subjected to vessel injury as described in Example 3 except that through the catheter, IL-10, Sirolimus or Sulindac bound nanoP3 solutions were injected at a concentration of 2×10^8 nanoP3 (IL-10, 0.268 μg; Sirolimus, 0.5 μg; Sulindac 0.61 μg; Cy7, 1.01 μg), in a total volume of roughly 80 μl of RPMI media.

[3] = system: rabbit model of iliac arterial injury; experiment: Rabbit iliac injury and nanoP3 delivery model; format: in vivo; conditions: 200 nm NP3, over seven days
Method: Study approval was obtained from the University of Sydney Animal Ethics Committee (AEC) protocol 2019-1653. Experiments were conducted in accordance with the Australian Code of Practice for the Care and Use of Animals for Scientific Purpose. An incision (˜1cm length) was made in the middle of the inguinal skin and the right femoral artery exposed after the blunt dissection of the muscle layers. The artery was ligated on the distal end and above the ligation, a small incision made to allow a 5F sheath (Abbott, TREK Coronary Dilatation Catheter, 3.25 mm) to be inserted. The sheath was held in place with sutures (3-0, silk). A 0.014 inch guide wire was inserted through the sheath, retrograde into the abdominal aorta. A 3.25 mm angioplasty balloon catheter was then inserted over the guide wire and advanced into the aorta. The location of NP3 delivery and the surrounding vasculature was determined by intravenous injection of contrast fluid ISOVUE 370 or OMNIPAQUE (75.5 g/100 ml), 25%-50% (v/v) contrast/saline prior to angiography.
Denudation of the iliac artery was performed by inflating the balloon at the bifurcation of the abdominal aorta to 3.1 mm diameter and withdrawn to the femoral artery slowly, 3 times (1 min per denudation). Through the main incision, the same balloon was re-inserted into the injured iliac to the bifurcation and inflated to 6-8 atm to occlude proximal blood flow. Immediately after blood flow has been occluded, a IL-10 nanoP3 solution (3×10^8 total 2 ml) was delivered through the sheath, inflating the artery, and allowed to incubate for 2 minutes before aspirating remaining solution back through the sheath. The sheath was removed, the femoral artery permanently ligated by 3-0 silk suture, followed by removal of the sheath. The exposed area was closed by 3-0 silk suture with individual stiches and double layer sutures.

[4] = system: Raw 246.7 mouse macrophage cells; experiment: M2 macrophage polarisation in vitro (SEM, confocal arginase-1 staining); format: cell-based; conditions: 1×10^5 nanoP3/well, 24 hours; for expression of arginase-1 (ARG-1), confocal immunostaining: vs control and NP3 only; for M2 activation of macrophages (SEM spreading and surface roughness): vs untreated and NP3 only
Method: The inventors sought to investigate the effect of NP3+IL-4 on macrophage polarisation in vitro. Raw 246.7 mouse macrophage cells (ATCC, USA) were cultured at 5×10^3 cells/well in a 96 well plate. IL-4 bound nanoP3 was added into macrophage cultures at a concentration of 1×10^5 nanoP3/well. After 24 hours, macrophages were fixed in 4% paraformaldehyde prior to scanning electron microscopy (SEM) and confocal imaging. Confocal staining was performed using an Actin cytoskeletal stain (Abcam, USA) and an anti-arginase-1 antibody (Abcam, USA).
Raw 246.7 mouse macrophage cells (ATCC, USA) were cultured at 5×10^3 cells/well in a 96 well plate. IL-10 (1.34 μg/10^9 nanoP3) and Sulindac (3.05μg/10^9nanoP3) were bound to nanoP3 as described in Example 4.
NP3+IL-10 or NP3+Sulindac was added into macrophage cultures at a concentration of 1 x 10^5 nanoP3/well. After 24 hours, macrophages were fixed in 4% paraformaldehyde prior to scanning electron microscopy (SEM) and confocal imaging. Confocal staining was performed using an Actin cytoskeletal stain (Abcam, USA) and an anti-arginase-1 antibody (Abcam, USA).

[5] = Tracking of IL-4 retention in the isolated vessel (Cy5 tag), rat carotid injury model; format: in vivo; conditions: for IL-4 retention in the vessel after restoration of blood flow: 2 minutes incubation in isolated carotid
Method: A) Procedural workflow of vessel injury: 1. Microintraocular forceps are inserted into ligated/isolated carotid rat segments. 2. Forceps are expanded and rotated 360° to mimic balloon injury overexpansion injury/denudation. 3. Forceps are removed, and through the same incision a small gauge catheter is inserted. 4. NP3+IL-4 solutions are delivered through the catheter and are allowed to incubate in the isolated vessel for 2 minutes. 5. The incision is sutured, and blood flow is restored.
as §1

| Molecule | binding efficiency at further increased loading [1] [%] | loading capacity at maximum binding efficiency [1] [μg/10^9 particles] | maximum binding efficiency of nanoP3 to interleukin in solution [1] | loading capacity, further increased loading [1] [μg/10^9 particles] | repair of the damaged endothelium (immunostaining, von Willebrand factor) [2] | expression of arginase-1 (ARG-1), confocal immunostaining [4] | M2 activation of macrophages (SEM spreading and surface roughness) [4] | vascular occlusion (neointima formation percentage of cross-sectional lumen area) ([2]; two weeks) | IL-4 retention in the vessel after restoration of blood flow [5] | other results |
| --- | --- | --- | --- | --- | --- | --- | --- | --- | --- | --- |
| B1 | 40 | 0.5±0.02 | 99.9% and 100% | 0.80±0.02 | absent |  |  |  |  | effect on vascular occlusion ([2]; two weeks): no significant effects |
| B2 |  |  |  |  | restore full endothelium integrity | significantly upregulated | causes M2 activation | ~20% |  | incidence of thrombosis (CD31 staining) [3]: significantly reduced; neointimal hyperplasia / occlusion (H&E staining) ([3]; vs untreated controls): reduced hyperplasia; vessel inflammation, infiltration of pro-inflammatory macrophages (CD68 staining) ([3]; vs untreated controls): reduces the infiltration of pro-inflammatory macrophages; neointimal hyperplasia / occlusion (H&E staining) ([3]; vs untreated controls, listed as IL-10+NP3): reduced hyperplasia; neointimal hyperplasia / occlusion (H&E staining) ([3]; vs untreated controls, listed as NP3+IL10): reduced occlusion; vessel re-endothelialisation / healing (von Willebrand factor staining) [2]: stimulate healing; vessel re-endothelialisation / healing (von Willebrand factor staining) ([2]; listed as NP3 delivered IL-10): stimulates vessel healing; vessel inflammation/macrophage polarisation (CD206 co-staining with CD68) ([2]; 200 nm NP3, FIG. 9): promoting M2 macrophage polarisation; neointimal hyperplasia (H&E staining) ([2]; 200 nm NP3, compared to freely delivered agents, FIG. 7): inhibition of neointimal hyperplasia; presence of M2 macrophages in treated carotid segments (immunostaining, CD206) ([2]; 14 days, compared to denuded, NP3+IL-4 and free IL-10): significant increase |
| B3 | 53.1 | 0.5±0.01 | 99% and 100% | 1.1±0.02 |  |  |  |  | immediately washed away |  |
| B4 |  |  |  |  | restore full endothelium integrity | significantly upregulated | increases spreading (top row) and surface roughness | approximately 35% | significantly retained | persistence of IL-4 at substantial levels in the vessel [5]: ≥ 5 days; M2 activation of macrophages (SEM spreading and surface roughness) ([4]; listed as nanoP3-IL4): causes M2 activation |
